For data set [1], the target named is T1, RNase H1 D252N (Drosophila melanogaster, UniProt A1Z769 17-333, D252N).
T1 sequence: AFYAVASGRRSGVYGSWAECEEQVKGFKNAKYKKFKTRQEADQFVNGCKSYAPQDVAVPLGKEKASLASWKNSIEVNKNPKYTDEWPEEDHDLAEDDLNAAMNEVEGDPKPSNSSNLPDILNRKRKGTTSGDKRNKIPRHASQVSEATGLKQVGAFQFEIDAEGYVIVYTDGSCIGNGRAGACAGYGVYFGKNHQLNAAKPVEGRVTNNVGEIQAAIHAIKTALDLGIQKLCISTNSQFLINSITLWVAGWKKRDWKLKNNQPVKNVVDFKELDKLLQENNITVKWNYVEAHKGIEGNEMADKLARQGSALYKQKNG
The data set is described as follows: EMSA; BLI: 30 mM Tris-HCl pH 8.0, 100 mM KCl, 10% glycerol, 10 mM EDTA, 2 mM DTT, 400 ug/ml BSA, 30 C; EMSA: 25 mM Tris-HCl pH 8.0, 25 mM KCl, 1 mM DTT, 10 mM EDTA, 20 ug/ml BSA, room temperature, 30 min. The conditions noted are these: protein: recombinant, tags: C-terminal 6xHis (+2 vector residues), blunt. In general terms: A gel shift assay detects complexes by their altered migration in electrophoresis.

For a further data set, the target named is T2, RNase H1 ΔII/III D252N (Drosophila melanogaster, UniProt A1Z769 17-333, D252N;del66-141).
T2 sequence: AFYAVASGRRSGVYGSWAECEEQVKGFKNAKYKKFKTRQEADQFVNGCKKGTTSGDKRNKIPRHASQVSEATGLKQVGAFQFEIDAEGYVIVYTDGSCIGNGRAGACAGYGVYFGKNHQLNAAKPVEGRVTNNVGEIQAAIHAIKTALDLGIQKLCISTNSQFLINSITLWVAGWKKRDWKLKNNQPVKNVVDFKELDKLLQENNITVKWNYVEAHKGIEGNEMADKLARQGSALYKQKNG
The description is as above. As to conditions: protein: recombinant, tags: C-terminal 6xHis, blunt.

The target in data set [2] is T3, RNase H1 ΔIV/V (Drosophila melanogaster, UniProt A1Z769 17-142).
T3 sequence: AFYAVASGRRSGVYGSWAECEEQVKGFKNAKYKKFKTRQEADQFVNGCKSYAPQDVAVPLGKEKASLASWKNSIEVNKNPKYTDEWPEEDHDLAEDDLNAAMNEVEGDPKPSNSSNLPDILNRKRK
The data set is described as follows: BLI; BLI: 30 mM Tris-HCl pH 8.0, 100 mM KCl, 10% glycerol, 10 mM EDTA, 2 mM DTT, 400 ug/ml BSA, 30 C; EMSA: 25 mM Tris-HCl pH 8.0, 25 mM KCl, 1 mM DTT, 10 mM EDTA, 20 ug/ml BSA, room temperature, 30 min. As to conditions: protein: recombinant, tags: C-terminal 6xHis, blunt. In general terms: Biolayer interferometry detects binding as a change in optical thickness at a sensor tip.

In data set [3] the target is T4, RNase H1 ΔII-V (Drosophila melanogaster, UniProt A1Z769 17-65).
T4 chain: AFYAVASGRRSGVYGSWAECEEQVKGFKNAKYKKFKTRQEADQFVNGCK
The description is as above. The conditions noted are these: protein: recombinant, tags: C-terminal 6xHis, blunt.

Data set [4] deals with T5, RNase H1 ΔIII-V (Drosophila melanogaster, UniProt A1Z769 17-87).
T5 sequence: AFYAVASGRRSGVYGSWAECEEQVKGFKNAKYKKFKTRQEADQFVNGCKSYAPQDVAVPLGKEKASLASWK
Described as above. As to conditions: protein: recombinant, tags: C-terminal 6xHis, blunt.

The next data set has as its target T6, RNase H1 ΔI/II D252N (Drosophila melanogaster, UniProt A1Z769 87-333, D252N).
T6 sequence: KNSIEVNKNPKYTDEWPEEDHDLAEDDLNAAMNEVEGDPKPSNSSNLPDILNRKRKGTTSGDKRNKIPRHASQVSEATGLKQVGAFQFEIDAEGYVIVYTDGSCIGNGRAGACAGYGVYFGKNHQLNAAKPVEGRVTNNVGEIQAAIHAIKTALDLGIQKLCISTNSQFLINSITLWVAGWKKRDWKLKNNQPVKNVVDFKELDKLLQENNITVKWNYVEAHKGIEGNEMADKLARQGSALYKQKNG
The data set is described as follows: EMSA; no supershift; BLI: 30 mM Tris-HCl pH 8.0, 100 mM KCl, 10% glycerol, 10 mM EDTA, 2 mM DTT, 400 ug/ml BSA, 30 C; EMSA: 25 mM Tris-HCl pH 8.0, 25 mM KCl, 1 mM DTT, 10 mM EDTA, 20 ug/ml BSA, room temperature, 30 min. As to conditions: protein: recombinant; tags: C-terminal 6xHis; blunt.

The target of the next data set is T7, RNase H1 ΔI-III D252N (Drosophila melanogaster, UniProt A1Z769 142-333, D252N).
T7 sequence: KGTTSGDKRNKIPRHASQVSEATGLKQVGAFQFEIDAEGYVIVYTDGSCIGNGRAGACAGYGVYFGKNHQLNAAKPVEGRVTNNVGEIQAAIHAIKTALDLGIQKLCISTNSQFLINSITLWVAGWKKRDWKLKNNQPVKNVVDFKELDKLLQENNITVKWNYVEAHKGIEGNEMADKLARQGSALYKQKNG
The data set is described as above. The conditions noted are these: protein: recombinant; tags: C-terminal 6xHis; blunt.

The target of data set [5] is T3, RNase H1 ΔIV/V. The data set is described as follows: EMSA; supershift at high protein; BLI: 30 mM Tris-HCl pH 8.0, 100 mM KCl, 10% glycerol, 10 mM EDTA, 2 mM DTT, 400 ug/ml BSA, 30 C; EMSA: 25 mM Tris-HCl pH 8.0, 25 mM KCl, 1 mM DTT, 10 mM EDTA, 20 ug/ml BSA, room temperature, 30 min. As to conditions: protein: recombinant; tags: C-terminal 6xHis; blunt.
Data set [6] addresses T4, RNase H1 ΔII-V. Described as above. The conditions noted are these: protein: recombinant; tags: C-terminal 6xHis; blunt.
In data set [7] the target is T5, RNase H1 ΔIII-V. The description is as above. The conditions noted are these: protein: recombinant; tags: C-terminal 6xHis; blunt.
The target of data set [8] is T1, RNase H1 D252N. Put plainly: EMSA; second shift at high protein; BLI: 30 mM Tris-HCl pH 8.0, 100 mM KCl, 10% glycerol, 10 mM EDTA, 2 mM DTT, 400 ug/ml BSA, 30 C; EMSA: 25 mM Tris-HCl pH 8.0, 25 mM KCl, 1 mM DTT, 10 mM EDTA, 20 ug/ml BSA, room temperature, 30 min. The conditions noted are these: protein: recombinant; tags: C-terminal 6xHis (+2 vector residues); blunt.

For data set [9], the target named is T1, RNase H1 D252N. Put plainly: EMSA; 1 or 10 uM protein; BLI: 30 mM Tris-HCl pH 8.0, 100 mM KCl, 10% glycerol, 10 mM EDTA, 2 mM DTT, 400 ug/ml BSA, 30 C; EMSA: 25 mM Tris-HCl pH 8.0, 25 mM KCl, 1 mM DTT, 10 mM EDTA, 20 ug/ml BSA, room temperature, 30 min. The conditions noted are these: protein: recombinant; tags: C-terminal 6xHis (+2 vector residues); label: 5' 32P; single strand.

The target in data set [10] is Dm RNase H1 (amino acids 17-333), bacterially expressed (Drosophila melanogaster).

B1: 30-bp dsRNA (dsRNA)
RNA 1: AAGUAGGGCACGCUAUAGUUAGUCUUCGCG
RNA 2: CGCGAAGACUAACUAUAGCGUGCCCUACUU
Take B1: the binding result with RNase H1 D252N [1] (label: 5' biotin on S2 for BLI) was “binds”; with RNase H1 ΔII/III D252N (label: 5' biotin on S2 for BLI), “binds”; with RNase H1 ΔIV/V [2] (label: 5' biotin on S2 for BLI), “no binding”; with RNase H1 ΔII-V [3] (label: 5' biotin on S2 for BLI), “no binding”; with RNase H1 ΔIII-V [4] (label: 5' biotin on S2 for BLI), “no binding”.

B2: 30-bp RNA/DNA hybrid (EMSA) (DNA:RNA)
RNA: CGCGAAGACUAACUAUAGCGUGCCCUACUU
DNA: AAGTAGGGCACGCTATAGTTAGTCTTCGCG
Regarding B2, the binding result with RNase H1 ΔII/III D252N, in the data set with RNase H1 ΔI/II D252N, in the data set with RNase H1 ΔI-III D252N, in the data set with RNase H1 ΔIV/V [5], with RNase H1 ΔII-V [6] and with RNase H1 ΔIII-V [7] was “binds” throughout. Besides, the binding result with RNase H1 D252N [8] is “binds”.
AAGTAGGGCACGCTATAGTTAGTCTTCGCG (ssDNA) [30-nt ssDNA]: the binding result with RNase H1 D252N [9] is on record as “no binding”.

B3: Drosophila mitochondrial single-stranded DNA-binding protein, purified (natural protein)
chain: ATTTTAAAPAKVEKTVNTVTILGRVGADPQLRGSQEHPVVTFSVATHTNYKYENGDWAQRTDWHRVVVFKPNLRDTVLEYLKKGQRTMVQGKITYGEITDQQGNQKTSTSIIADDVLFFRDANN
Consider B3, for which the nuclease activity of 0.1 nM Dm RNase H1 on radiolabelled 30-bp RNA/DNA hybrid pre-incubated with mtSSB (0-500 nM), without ssDNA; densitometry in data set [10] amounted to 55%.

B4: 30-bp dsDNA (dsDNA)
DNA 1: AAGTAGGGCACGCTATAGTTAGTCTTCGCG
DNA 2: CGCGAAGACTAACTATAGCGTGCCCTACTT
B4: the binding result is listed as “binds” with RNase H1 D252N [1] (label: 5' biotin on S3 for BLI); “binds” with RNase H1 ΔII/III D252N (label: 5' biotin on S3 for BLI); “no binding” in the data set with RNase H1 ΔIV/V [2] (label: 5' biotin on S3 for BLI); “no binding” with RNase H1 ΔII-V [3] (label: 5' biotin on S3 for BLI); “no binding” with RNase H1 ΔIII-V [4] (label: 5' biotin on S3 for BLI).
As to CGCGAAGACUAACUAUAGCGUGCCCUACUU (ssRNA) [30-nt ssRNA], in the data set with RNase H1 D252N [9], the binding result is given as “no binding”.

The values above are taken from paper PMC7657459, “A second hybrid-binding domain modulates the activity of Drosophila ribonuclease H1”.
